# Values of other authors, collected in patent US20260201061A1, “COMBINATION FOR TREATMENT AND PREVENTION OF CANCER” (Hummingbird Bioscience Pte. Ltd., priority 2022, published 2026).
# Molecular target: HER3 (Homo sapiens, UniProt P21860)
row,Molecule,inhibition of binding of heregulin (HRG)/ligand to HER3
1,Patritumab: anti-HER3 antibody [reference compound],inhibit HER3-mediated signaling by blocking binding of heregulin (HRG) to HER3
2,"seribantumab: anti-HER3 antibody (antibody, chains of the INN, looked up) heavy: EVQLLESGGGLVQPGGSLRLSCAASGFTFSHYVMAWVRQAPGKGLEWVSSISSSGGWTLYADSVKGRFTISRDNSKNTLYLQMNSLRAEDTAVYYCTRGLKMATIFDYWGQGTLVTVSSASTKGPSVFPLAPCSRSTSESTAALGCLVKDYFPEPVTVSWNSGALTSGVHTFPAVLQSSGLYSLSSVVTVPSSNFGTQTYTCNVDHKPSNTKVDKTVERKCCVECPPCPAPPVAGPSVFLFPPKPKDTLMISRTPEVTCVVVDVSHEDPEVQFNWYVDGVEVHNAKTKPREEQFNSTFRVVSVLTVVHQDWLNGKEYKCKVSNKGLPAPIEKTISKTKGQPREPQVYTLPPSREEMTKNQVSLTCLVKGFYPSDIAVEWESNGQPENNYKTTPPMLDSDGSFFLYSKLTVDKSRWQQGNVFSCSVMHEALHNHYTQKSLSLSPG light: QSALTQPASVSGSPGQSITISCTGTSSDVGSYNVVSWYQQHPGKAPKLIIYEVSQRPSGVSNRFSGSKSGNTASLTISGLQTEDEADYYCCSYAGSSIFVIFGGGTKVTVLGQPKAAPSVTLFPPSSEELQANKATLVCLVSDFYPGAVTVAWKADGSPVKVGVETTKPSKQSNNKYAASSYLSLTPEQWKSHRSYSCRVTHEGSTVEKTVAPAECS",inhibit HER3-mediated signaling by blocking binding of heregulin (HRG) to HER3
3,"ISU104: anti-HER3 antibody, mainly binds to domain III of HER3 (antibody, chains of the INN, looked up, V domains shown) VH: EVQLLESGGGLVQPGGSLRLSCAASGFTFSDYDMSWVRQAPGKGLEWVSTIDLDSGSIYYADSVQGRFTISRDNSKNTLYLQMNSLRAEDTAVYYCAKDLHMGPEGPFDYWGQGTLVTVSS VL: QSVLTQPPSASGTPGQRVTISCSGSSSNIGSNSVSWYQQLPGTAPKLLIYSDNHRPSGVPDRFSGSKSGTSASLAISGLRSEDEADYYCQGWDTSLSGHVFGGGTKLTVL",dose-dependent inhibition of binding of HRG to HER3
